One block for each molecule: values may come before it. Side chains are listed from the residue outwards. Ends that are not written are not given here. * marks the point of attachment. Biotin = O=C1N[C@H]2[C@H](CS[C@H]2CCCCC(=O)*)N1; Ahx = NCCCCCC(=O)O
Columns and labels:
[1] = target: T1, purified I-Ed class II glycoprotein (Mus musculus, UniProt P01904+P01915); assay type: binding
T1 sequence (P01904 26-255): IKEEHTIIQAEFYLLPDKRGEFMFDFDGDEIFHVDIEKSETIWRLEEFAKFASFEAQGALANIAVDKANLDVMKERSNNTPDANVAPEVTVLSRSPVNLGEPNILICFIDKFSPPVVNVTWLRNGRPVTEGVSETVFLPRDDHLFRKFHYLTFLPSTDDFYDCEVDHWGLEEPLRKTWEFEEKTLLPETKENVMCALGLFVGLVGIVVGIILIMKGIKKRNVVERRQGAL
T1 sequence (P01915 27-264 limits assumed): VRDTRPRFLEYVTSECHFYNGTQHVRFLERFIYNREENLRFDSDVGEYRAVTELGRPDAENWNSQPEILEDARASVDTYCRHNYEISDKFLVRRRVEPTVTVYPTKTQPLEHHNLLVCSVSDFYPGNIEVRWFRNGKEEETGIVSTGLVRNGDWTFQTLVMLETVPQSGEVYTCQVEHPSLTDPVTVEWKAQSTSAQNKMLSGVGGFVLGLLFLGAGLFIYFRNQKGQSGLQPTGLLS

[2] = test system: purified I-Ad class II glycoprotein; assay type: binding, mouse; settings: immunoassay
[3] = target: I-Ed class II MHC glycoprotein, purified (mouse (endogenous in A20 B lymphoma)); assay: ELISA

inhibition of binding of biotin-HEL(104-120) to I-Ed by unlabeled peptide ([1]; 2 μM biotin-HEL(104-120), 24 h, at higher competitor concentrations): partially inhibited
Molecule: FISEAIIHVLHSR [Myo(106-118), reference compound]

binding to I-Ad (in words) [2]: binds well
optimum pH of binding to I-Ed ([1]; 40 h at various pHs, 2 μM biotin-HEL(104-120) or 10 μM biotin-Myo(106-118)): more acidic pH
binding to I-Ed (in words) ([1]; immunoassay): weakly
Molecule: biotin-Myo(106-118): Myo(106-118) biotinylated with biotin-amidocaproate N-hydroxysuccinimide ester at the free α amino group ({Biotin-Ahx}-FISEAIIHVLHSR)

Kd [3]: 2330 nM
Molecule: {Biotin-Ahx}-GMNAWVAWRNRCK([Ahx-Biotin])GTDVY [biotin-HEL(104-120)]
